In patent publication USRE49847 (dated 2024) one finds binding result and MFI data, which are given here for ten molecules.

The target in assay [1] is T1, soluble CD22-Fc (R&D Systems) (UniProt P20273 20-687).
T1 construct: Bought reagent used to stain CD22 CARs; not shown: Fc part; detected with anti-human IgG Fc-gamma secondary
T1 sequence (looked up): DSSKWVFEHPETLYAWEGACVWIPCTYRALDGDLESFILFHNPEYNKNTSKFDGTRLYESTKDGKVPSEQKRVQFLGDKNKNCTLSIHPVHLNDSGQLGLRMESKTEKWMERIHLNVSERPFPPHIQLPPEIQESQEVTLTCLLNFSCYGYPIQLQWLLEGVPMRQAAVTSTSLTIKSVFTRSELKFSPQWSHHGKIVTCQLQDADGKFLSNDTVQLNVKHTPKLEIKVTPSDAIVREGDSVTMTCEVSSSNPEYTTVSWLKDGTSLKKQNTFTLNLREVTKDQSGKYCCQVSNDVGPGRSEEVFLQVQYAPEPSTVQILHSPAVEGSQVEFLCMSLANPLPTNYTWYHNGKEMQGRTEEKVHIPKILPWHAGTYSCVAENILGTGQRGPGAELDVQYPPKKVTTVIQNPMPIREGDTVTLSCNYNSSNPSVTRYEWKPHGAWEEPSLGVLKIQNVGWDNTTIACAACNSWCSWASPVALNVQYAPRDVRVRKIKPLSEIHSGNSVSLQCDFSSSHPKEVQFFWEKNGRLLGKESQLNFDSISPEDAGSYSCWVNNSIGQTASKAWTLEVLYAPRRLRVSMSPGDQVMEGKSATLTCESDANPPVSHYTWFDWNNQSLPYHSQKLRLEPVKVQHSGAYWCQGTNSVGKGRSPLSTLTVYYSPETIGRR
The assay is described as follows: FACS surface staining of transduced JNL cells with CD22-Fc.

The target in assay [2] is T1, soluble CD22-Fc (R&D Systems). In words: flow cytometry, soluble CD22-Fc plus anti-human Fc-PE on CAR-transduced primary T cells (FIG. 4).

B1: tandem CD22/CD19 CAR construct 188 (other)
chain: QSALTQPASASGSPGQSVTISCTGTSSDVGGYNYVSWYQQHPGKAPKLMIYDVSNRPSGVSNRFSGSKSGNTASLTISGLQAEDEADYYCSSYTSSSTLYVFGTGTQLTVLGGGGSEVQLQQSGPGLVKPSQTLSLTCAISGDSMLSNSDTWNWIRQSPSRGLEWLGRTYHRSTWYDDYASSVRGRVSINVDTSKNQYSLQLNAVTPEDTGVYYCARVRLQDGNSWSDAFDVWGQGTMVTVSSGGGGSEIVMTQSPATLSLSPGERATLSCRASQDISKYLNWYQQKPGQAPRLLIYHTSRLHSGIPARFSGSGSGTDYTLTISSLQPEDFAVYFCQQGNTLPYTFGQGTKLEIKGGGGSGGGGSGGGGSQVQLQESGPGLVKPSETLSLTCTVSGVSLPDYGVSWIRQPPGKGLEWIGVIWGSETTYYQSSLKSRVTISKDNSKNQVSLKLSSVTAADTAVYYCAKHYYYGGSYAMDYWGQGTLVTVSSTTTPAPRPPTPAPTIASQPLSLRPEACRPAAGGAVHTRGLDFACDIYIWAPLAGTCGVLLLSLVITLYCKRGRKKLLYIFKQPFMRPVQTTQEEDGCSCRFPEEEEGGCELRVKFSRSADAPAYQQGQNQLYNELNLGRREEYDVLDKRRGRDPEMGGKPRRKNPQEGLYNELQKDKMAEAYSEIGMKGERRRGKGHDGLYQGLSTATKDTYDALHMQALPPR
notes: Distal anti-CD22 scFv L/H short linker, GGGGS, proximal anti-CD19 scFv; leader 1-21 left out; also called CG#c188; c188
With B1, the binding result in assay [1] is recorded as “binds”.

B2: CD22-62 CAR (other)
chain: EVQLQQSGPGLVKPSQTLSLTCAISGDSVLSNSDTWNWIRQSPSRGLEWLGRTYHRSTWYDDYASSVRGRVSINVDTSKNQYSLQLNAVTPEDTGVYYCARDRLQDGNSWSDAFDVWGQGTMVTVSSGGGGSGGGGSGGGGSQSALTQPASVSGSPGQSITISCTGTSSDVGGYNYVSWYQQHPGKAPKLMIYDVSNRPSGVSNRFSGSKSGNTASLTISGLQAEDEADYYCSSYTSSSTLYVFGTGTKVTVL
notes: CAR on primary human T cells; not shown: hinge, transmembrane, 4-1BB and CD3zeta parts of the CAR
B2: the MFI in assay [2] is above 20000.

B3: CD22-59 CAR (other)
chain: EVQLQQSGPGLVKPSQTLSLTCAISGDSVLSNSDTWNWIRQSPSRGLEWLGRTYHRSTWYDDYASSVRGRVSINVDTSKNQYSLQLNAVTPEDTGVYYCARDRLQDGNSWSDAFDVWGQGTMVTVSSGGGGSGGGGSGGGGSQSALTQPASVSGSPGQSITISCTGSSSDIGGFNYVSWYQQHAGEAPKLMIYEVTNRPSGVSDRFSGSKSDNTASLTISGLQAEDEADYYCSSYASGSPLYVFGTGTKVTVL
notes: as for B2
Turning to B3, in assay [2], the MFI is above 20000.

B4: control anti-CD22 CAR CG#c175 (other)
chain: QSALTQPASASGSPGQSVTISCTGTSSDVGGYNYVSWYQQHPGKAPKLMIYDVSNRPSGVSNRFSGSKSGNTASLTISGLQAEDEADYYCSSYTSSSTLYVFGTGTQLTVLGGGGSGGGGSGGGGSEVQLQQSGPGLVKPSQTLSLTCAISGDSMLSNSDTWNWIRQSPSRGLEWLGRTYHRSTWYDDYASSVRGRVSINVDTSKNQYSLQLNAVTPEDTGVYYCARVRLQDGNSWSDAFDVWGQGTMVTVSS
notes: not shown: hinge, transmembrane, 4-1BB and CD3zeta parts of the CAR
For B4, in assay [1], the binding result is “binds”.

B5: tandem CD22/CD19 CAR construct 184 (other)
chain: EVQLQQSGPGLVKPSQTLSLTCAISGDSMLSNSDTWNWIRQSPSRGLEWLGRTYHRSTWYDDYASSVRGRVSINVDTSKNQYSLQLNAVTPEDTGVYYCARVRLQDGNSWSDAFDVWGQGTMVTVSSGGGGSQSALTQPASASGSPGQSVTISCTGTSSDVGGYNYVSWYQQHPGKAPKLMIYDVSNRPSGVSNRFSGSKSGNTASLTISGLQAEDEADYYCSSYTSSSTLYVFGTGTQLTVLGGGGSEIVMTQSPATLSLSPGERATLSCRASQDISKYLNWYQQKPGQAPRLLIYHTSRLHSGIPARFSGSGSGTDYTLTISSLQPEDFAVYFCQQGNTLPYTFGQGTKLEIKGGGGSGGGGSGGGGSQVQLQESGPGLVKPSETLSLTCTVSGVSLPDYGVSWIRQPPGKGLEWIGVIWGSETTYYQSSLKSRVTISKDNSKNQVSLKLSSVTAADTAVYYCAKHYYYGGSYAMDYWGQGTLVTVSSTTTPAPRPPTPAPTIASQPLSLRPEACRPAAGGAVHTRGLDFACDIYIWAPLAGTCGVLLLSLVITLYCKRGRKKLLYIFKQPFMRPVQTTQEEDGCSCRFPEEEEGGCELRVKFSRSADAPAYQQGQNQLYNELNLGRREEYDVLDKRRGRDPEMGGKPRRKNPQEGLYNELQKDKMAEAYSEIGMKGERRRGKGHDGLYQGLSTATKDTYDALHMQALPPR
notes: Distal anti-CD22 scFv H/L short linker, GGGGS, proximal anti-CD19 scFv; leader 1-21 left out; also called CG#c184; c184
For B5, the binding result in assay [1] is “binds”.

B6: tandem CD22/CD19 CAR construct 185 (other)
chain: QSALTQPASASGSPGQSVTISCTGTSSDVGGYNYVSWYQQHPGKAPKLMIYDVSNRPSGVSNRFSGSKSGNTASLTISGLQAEDEADYYCSSYTSSSTLYVFGTGTQLTVLGGGGSGGGGSGGGGSEVQLQQSGPGLVKPSQTLSLTCAISGDSMLSNSDTWNWIRQSPSRGLEWLGRTYHRSTWYDDYASSVRGRVSINVDTSKNQYSLQLNAVTPEDTGVYYCARVRLQDGNSWSDAFDVWGQGTMVTVSSLAEAAAKEIVMTQSPATLSLSPGERATLSCRASQDISKYLNWYQQKPGQAPRLLIYHTSRLHSGIPARFSGSGSGTDYTLTISSLQPEDFAVYFCQQGNTLPYTFGQGTKLEIKGGGGSGGGGSGGGGSQVQLQESGPGLVKPSETLSLTCTVSGVSLPDYGVSWIRQPPGKGLEWIGVIWGSETTYYQSSLKSRVTISKDNSKNQVSLKLSSVTAADTAVYYCAKHYYYGGSYAMDYWGQGTLVTVSSTTTPAPRPPTPAPTIASQPLSLRPEACRPAAGGAVHTRGLDFACDIYIWAPLAGTCGVLLLSLVITLYCKRGRKKLLYIFKQPFMRPVQTTQEEDGCSCRFPEEEEGGCELRVKFSRSADAPAYQQGQNQLYNELNLGRREEYDVLDKRRGRDPEMGGKPRRKNPQEGLYNELQKDKMAEAYSEIGMKGERRRGKGHDGLYQGLSTATKDTYDALHMQALPPR
notes: Distal anti-CD22 scFv L/H, LAEAAAK, proximal anti-CD19 scFv; leader 1-21 left out; also called CG#c185; c185
On to B6, for which the binding result in assay [1] was “binds”.

B7: control anti-CD22 CAR CG#c176 (other)
chain: QSALTQPASASGSPGQSVTISCTGTSSDVGGYNYVSWYQQHPGKAPKLMIYDVSNRPSGVSNRFSGSKSGNTASLTISGLQAEDEADYYCSSYTSSSTLYVFGTGTQLTVLGGGGSEVQLQQSGPGLVKPSQTLSLTCAISGDSMLSNSDTWNWIRQSPSRGLEWLGRTYHRSTWYDDYASSVRGRVSINVDTSKNQYSLQLNAVTPEDTGVYYCARVRLQDGNSWSDAFDVWGQGTMVTVSS
notes: as for B4
Turning to B7, the binding result in assay [1] is “binds”.

B8: tandem CD22/CD19 CAR construct 186 (other)
chain: QSALTQPASASGSPGQSVTISCTGTSSDVGGYNYVSWYQQHPGKAPKLMIYDVSNRPSGVSNRFSGSKSGNTASLTISGLQAEDEADYYCSSYTSSSTLYVFGTGTQLTVLGGGGSGGGGSGGGGSEVQLQQSGPGLVKPSQTLSLTCAISGDSMLSNSDTWNWIRQSPSRGLEWLGRTYHRSTWYDDYASSVRGRVSINVDTSKNQYSLQLNAVTPEDTGVYYCARVRLQDGNSWSDAFDVWGQGTMVTVSSGGGGSEIVMTQSPATLSLSPGERATLSCRASQDISKYLNWYQQKPGQAPRLLIYHTSRLHSGIPARFSGSGSGTDYTLTISSLQPEDFAVYFCQQGNTLPYTFGQGTKLEIKGGGGSGGGGSGGGGSQVQLQESGPGLVKPSETLSLTCTVSGVSLPDYGVSWIRQPPGKGLEWIGVIWGSETTYYQSSLKSRVTISKDNSKNQVSLKLSSVTAADTAVYYCAKHYYYGGSYAMDYWGQGTLVTVSSTTTPAPRPPTPAPTIASQPLSLRPEACRPAAGGAVHTRGLDFACDIYIWAPLAGTCGVLLLSLVITLYCKRGRKKLLYIFKQPFMRPVQTTQEEDGCSCRFPEEEEGGCELRVKFSRSADAPAYQQGQNQLYNELNLGRREEYDVLDKRRGRDPEMGGKPRRKNPQEGLYNELQKDKMAEAYSEIGMKGERRRGKGHDGLYQGLSTATKDTYDALHMQALPPR
notes: Distal anti-CD22 scFv L/H, GGGGS, proximal anti-CD19 scFv; leader 1-21 left out; also called CG#c186; c186
Regarding B8, the binding result in assay [1] is “binds”.

B9: control anti-CD22 CAR CG#c170 (other)
chain: EVQLQQSGPGLVKPSQTLSLTCAISGDSMLSNSDTWNWIRQSPSRGLEWLGRTYHRSTWYDDYASSVRGRVSINVDTSKNQYSLQLNAVTPEDTGVYYCARVRLQDGNSWSDAFDVWGQGTMVTVSSGGGGSQSALTQPASASGSPGQSVTISCTGTSSDVGGYNYVSWYQQHPGKAPKLMIYDVSNRPSGVSNRFSGSKSGNTASLTISGLQAEDEADYYCSSYTSSSTLYVFGTGTQLTVL
notes: the tie is by that description, not by a printed label; not shown: hinge, transmembrane, 4-1BB and CD3zeta parts of the CAR
In the case of B9, in assay [1], the binding result is “binds”.

B10: tandem CD22/CD19 CAR construct 187 (other)
chain: QSALTQPASASGSPGQSVTISCTGTSSDVGGYNYVSWYQQHPGKAPKLMIYDVSNRPSGVSNRFSGSKSGNTASLTISGLQAEDEADYYCSSYTSSSTLYVFGTGTQLTVLGGGGSEVQLQQSGPGLVKPSQTLSLTCAISGDSMLSNSDTWNWIRQSPSRGLEWLGRTYHRSTWYDDYASSVRGRVSINVDTSKNQYSLQLNAVTPEDTGVYYCARVRLQDGNSWSDAFDVWGQGTMVTVSSLAEAAAKEIVMTQSPATLSLSPGERATLSCRASQDISKYLNWYQQKPGQAPRLLIYHTSRLHSGIPARFSGSGSGTDYTLTISSLQPEDFAVYFCQQGNTLPYTFGQGTKLEIKGGGGSGGGGSGGGGSQVQLQESGPGLVKPSETLSLTCTVSGVSLPDYGVSWIRQPPGKGLEWIGVIWGSETTYYQSSLKSRVTISKDNSKNQVSLKLSSVTAADTAVYYCAKHYYYGGSYAMDYWGQGTLVTVSSTTTPAPRPPTPAPTIASQPLSLRPEACRPAAGGAVHTRGLDFACDIYIWAPLAGTCGVLLLSLVITLYCKRGRKKLLYIFKQPFMRPVQTTQEEDGCSCRFPEEEEGGCELRVKFSRSADAPAYQQGQNQLYNELNLGRREEYDVLDKRRGRDPEMGGKPRRKNPQEGLYNELQKDKMAEAYSEIGMKGERRRGKGHDGLYQGLSTATKDTYDALHMQALPPR
notes: Distal anti-CD22 scFv L/H short linker, LAEAAAK, proximal anti-CD19 scFv; leader 1-21 left out; also called CG#c187; c187
As to B10, the binding result in assay [1] was “binds”.
